{"source": "patent US20040087537A1", "key": {"[1]": {"target": "low affinity human Nerve Growth Factor receptor truncated in its intracytoplasmic domain (delta-LNGFR), product of the HN vector (human)", "sequence (chain, as listed by the source mutant limits assumed)": "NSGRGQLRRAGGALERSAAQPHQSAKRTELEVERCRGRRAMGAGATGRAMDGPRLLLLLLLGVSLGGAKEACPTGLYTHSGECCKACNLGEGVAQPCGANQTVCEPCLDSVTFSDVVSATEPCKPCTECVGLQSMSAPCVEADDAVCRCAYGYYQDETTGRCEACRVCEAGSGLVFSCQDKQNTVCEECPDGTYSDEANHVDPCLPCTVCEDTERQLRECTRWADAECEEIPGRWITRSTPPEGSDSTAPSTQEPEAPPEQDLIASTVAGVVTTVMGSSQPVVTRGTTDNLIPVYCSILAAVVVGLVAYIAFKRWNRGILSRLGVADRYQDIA", "test": "FACS on CEMss HN cells, control labeling"}, "[2]": {"target": "delta-LNGFR/F12Nef fusion protein, product of the NF vector (human LNGFR (NH2 moiety) fused to HIV-1 F12Nef (COOH moiety))", "test": "FACS on CEMss NF cells, control labeling"}}}
{"substance": "species and isotype matched IgG (antibody)", "values": [{"measurement": "MFI", "setting": "[1]", "result": "1 to 1.5"}, {"measurement": "MFI", "setting": "[2]", "result": "1 to 1.5"}]}
